In publication PMC6486636 (2019):
Each block holds one binder with its values, some of them ahead of it.

Assays:
[1] = biological target: LARP4A (1-287), N-terminal domain (Homo sapiens (Human), UniProt Q71RC2); assay: competition EMSA (MLLE displacing 32P-oligoA15 from NTD); mutually exclusive with oligoA15 RNA; measured by competition with preformed NTD-oligoA15 complex
[2] = biological target: T1, His-SUMO-MLLE (PABPC1 MLLE domain 544-626 fused with a His-tagged SUMO tag) (Homo sapiens (Human), UniProt P11940); assay: Ni-NTA pull-down, SDS-PAGE
T1 chain: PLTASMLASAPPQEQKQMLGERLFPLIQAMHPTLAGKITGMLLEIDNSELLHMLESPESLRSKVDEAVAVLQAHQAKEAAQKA

LARP4A (1-287), N-terminal domain (Homo sapiens (Human), UniProt Q71RC2), sequence (Q71RC2 1-287): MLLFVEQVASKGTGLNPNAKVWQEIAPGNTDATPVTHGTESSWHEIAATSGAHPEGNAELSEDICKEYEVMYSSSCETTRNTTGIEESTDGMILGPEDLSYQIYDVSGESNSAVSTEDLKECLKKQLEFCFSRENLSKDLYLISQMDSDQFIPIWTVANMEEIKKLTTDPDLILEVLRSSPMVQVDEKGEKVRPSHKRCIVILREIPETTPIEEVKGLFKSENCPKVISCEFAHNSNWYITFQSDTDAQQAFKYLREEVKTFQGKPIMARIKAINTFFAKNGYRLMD

binding result [1]: binds
B1: PABPC1 MLLE (544-626) (protein)
chain: T1 chain

binding result [2]: binds
B2: LARP4A (1-287), N-terminal domain (protein)
chain: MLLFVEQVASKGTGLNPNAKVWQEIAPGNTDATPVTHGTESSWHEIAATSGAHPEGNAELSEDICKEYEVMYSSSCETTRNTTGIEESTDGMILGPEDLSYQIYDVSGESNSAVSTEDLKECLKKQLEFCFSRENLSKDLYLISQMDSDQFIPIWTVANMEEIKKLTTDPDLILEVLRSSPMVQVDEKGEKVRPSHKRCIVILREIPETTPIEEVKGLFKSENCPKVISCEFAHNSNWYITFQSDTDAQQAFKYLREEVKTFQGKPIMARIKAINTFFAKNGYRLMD
